Target: T1, purified recombinant 6×His-TRIP13 (human, UniProt Q15645 1-432)
T1 construct: TRIP13, human AAA-ATPase; full-length cDNA cloned by the Gateway system; The host is probably E. coli: the methods name destination vectors for E. coli or mammalian cells; also called His-tagged TRIP13
T1 sequence (looked up): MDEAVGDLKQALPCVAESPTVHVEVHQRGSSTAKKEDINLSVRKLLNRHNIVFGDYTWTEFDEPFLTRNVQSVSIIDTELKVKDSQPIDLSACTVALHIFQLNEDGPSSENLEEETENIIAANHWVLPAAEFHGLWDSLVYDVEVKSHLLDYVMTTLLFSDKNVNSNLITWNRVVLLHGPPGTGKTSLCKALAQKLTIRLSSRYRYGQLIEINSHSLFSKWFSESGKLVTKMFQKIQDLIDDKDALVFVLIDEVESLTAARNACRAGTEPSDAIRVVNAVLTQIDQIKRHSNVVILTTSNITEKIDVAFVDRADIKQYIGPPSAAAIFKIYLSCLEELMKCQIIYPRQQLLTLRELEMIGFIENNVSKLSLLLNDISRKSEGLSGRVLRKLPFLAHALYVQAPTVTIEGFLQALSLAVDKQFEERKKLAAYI
Assay: pull-down; in vitro binding of recombinant proteins: His-TRIP13 at 100 nM, GST-p31^comet at increasing concentrations; Probond nickel beads, washed; blots with anti-6×His and anti-GST antibodies
Settings: both partners purified

B1: purified recombinant GST-p31^comet (natural protein, human, UniProt Q15013 1-274, looked up)
chain: MAAPEAEVLSSAAVPDLEWYEKSEETHASQIELLETSSTQEPLNASEAFCPRDCMVPVVFPGPVSQEGCCQFTCELLKHIMYQRQQLPLPYEQLKHFYRKPSPQAEEMLKKKPRATTEVSSRKCQQALAELESVLSHLEDFFARTLVPRVLILLGGNALSPKEFYELDLSLLAPYSVDQSLSTAACLRRLFRAIFMADAFSELQAPPLMGTVVMAQGHRNCGEDWFRPKLNYRVPSRGHKLTVTLSCGRPSIRTTAWEDYIWFQAPVTFKGFRE
notes: p31^comet (MAD2L1BP), human mitotic checkpoint silencing protein; full-length cDNA cloned by the Gateway system; The host is probably E. coli: the methods name destination vectors for E. coli or mammalian cells; also called MAD2L1BP
B1: binds.

From PMC3419070, “Identification of novel mitosis regulators through data mining with human centromere/kinetochore proteins as group queries” (BMC Cell Biology, 2012)
